The nature of the data set: soluble fraction after stress (log2 fold change); higher = more stays soluble; pooled small domains, quantitative proteomics. To be noted: stress: pH 4. An outline of the steps: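 Small protein domains from pooled custom libraries were exposed to pH 4, then quantified with high-throughput quantitative proteomics. The fold change in how much of each domain remains soluble is read as aggregation propensity. It is given as log2, with higher values meaning more stayed soluble.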

As to “HMEQKISVPALVGRDIEEILADTEVTGNFTIKEADKRVASNRPVGEVLEQDPGTGESAVKGTIITVTVSAG”, the “soluble fraction (log2)” value was -0.353.

In the case of “HMEQNTKAYEQVRTLTDLLNQYRHEYYNLSAPSVSDQEYDRLFDALAALEKQTGIVMSNSPTQTVG”, the “soluble fraction (log2)” value was -0.497.

For the sequence “HMEQPAPSTTVDILGGGRAALVTANRELGLALADDEIDYLTDSFTQLGRNPVDVELMMFAQA”, the “soluble fraction (log2)” value is -0.224.

As for “HMEQSLNTYSIRTVKESLFLAETKNLNKIEKLVEGIEGRLTLSEALVLFSDKLNAMSVLSHVNANT”, the “soluble fraction (log2)” value was -0.273.

“HMEQTIKKYVNVATLNFRSGPSTSYSIISTLSKGTKVEVISTTNNWSKIIYDGKIGYVSSEYLSKSI”: the “soluble fraction (log2)” value was not below 0.43.

Regarding “HMEQVPEAVGRRVRQARSDRGWTLDQLAERSEVSRRMIVNVEAGTSNASIATLLRLATALNVGLAELVA”, the “soluble fraction (log2)” value is -0.685.

Regarding “HMEQVVFNGTGRRKSSIARVRIMSGKGNITVNGKALDEYFGEETLKVIVRQPLTVTDTLDKYDVIATVK”, the “soluble fraction (log2)” value is -0.0364.

Take “HMEQYYVFFAGGMTIGTKEWYESILPENIATSYDDILEGKMMPASLEQIEFYNSHKDYDLYHLFYML”: the “soluble fraction (log2)” value is -1.4.

For the sequence “HMERAFRILELFDLKQDELPITEIAERTGLPISTAHRLLSTLETLGYIAQNPDNGRYRLGLQTFVLGSR”, the “soluble fraction (log2)” value is -1.3.

As for “HMERAPAYPDGLTQREVEVLRLIASGKTDREIAEELFIGVRTVSTHVGNILNKTNSANRTEAASYANQQGL”, the “soluble fraction (log2)” value is -1.53.

With “HMEREQNIAQGREVVQRELKRLGLTDVFTVEDIGRALKFDDIDEFLSKVGFGDIQTAKITGAIALMQQALR”, the “soluble fraction (log2)” value is -0.84.

Turning to “HMEREQNIEHGRAIVERELKRLGLSDVYTIADIATALRHDDVDQFLAKIGFGDIQSTQIGGAIAALQQR”, the “soluble fraction (log2)” value was -0.328.

Consider “HMEREQPFAVTEAYRGMRLDRFLQAMLPRMSRAAIQDAIDNRVRLGSGRAAKASLRPAIGDTVFFGQRI”, for which the “soluble fraction (log2)” value is -0.17.

Take “HMERFRQVNAGMTRDDIYQLLGKPTEKTPFPLKNEEVWSWRHQADGQTVALFNIHLDPDGRVTTTSQSMDL”: the “soluble fraction (log2)” value was -1.32.

Consider “HMERFVVISKDKYANLREEASTNSKVLAKVDNSYLIYNTNTYNENKDWYSVQIERDGNYYQVGYIHKSQL”, for which the “soluble fraction (log2)” value is -1.82.

Take “HMERLKRVTLSLNQSNYSVTEIARRLQAITGIKDITVVEDEQAVYLKVDPATFDLTLAQQAV”: the “soluble fraction (log2)” value was -0.653.

In the case of “HMERLLVSKINGMITEAKVSVEDVVKVVASRGHYPEVKSIDEYPDDFLSRWVVPNFKKIVEMINANKEA”, the “soluble fraction (log2)” value came to 0.239.

For “HMERMTSTEILTRDFLTTNSKIVKKSTIEELSEIIHVSPATIIRTVKKMGYSGFSEYKNELINQ”, the “soluble fraction (log2)” value turned out to be 0.0482.

With “HMERPEVVAYRLAYASAESLRPALGLVASPSDLEIDERTNTLIVRAVPSVQERVAELVASLDI”, the “soluble fraction (log2)” value was -0.889.

On to “HMERPKSLRELALEHLRNSIIDGSLKMGQVLSERKISEELGVSKSPVREALAQLRDEGLVSIEPQKGARV”, for which the “soluble fraction (log2)” value worked out at 0.288.

Take “HMERPLFVIEDYRRFAGNEVEISLKKGGKKIRGVIAGTPSDAEVTVRTQGGETTVPLGDVKRAHLVYV”: the “soluble fraction (log2)” value was found to be 0.0919.

As to “HMERRDEINSVVSRYVSAITEGKYDLAEVDETGKLRVQTEGREVLPEALSRGTLEQFYFAFRMAVGSI”, the “soluble fraction (log2)” value is -0.779.

With “HMERTQSIEAAREQLGEVTKDNVFETETLGALAILKENEPGEYAKIKADLKGKINMNDLERAVKKAAADQR”, the “soluble fraction (log2)” value was -0.0729.

For “HMERYFVLVIYDIVDNKKRLKLSKYLLGYGIRVQKSAFEMMITKEKYNKLIKELPTYIEEGEDSIRLY”, the “soluble fraction (log2)” value is -0.292.

“HMERYLLRDNIPNALHGERLDRVIAIMTGLSRSAVSALIKSNQVLRNGQIAQSISEKVVEGDELEVHLEP”: the “soluble fraction (log2)” value is -0.465.

Consider “HMESDAIAAAIAALPARYREVLLLRYDNGFSYSEISKALDMTEAAVRKTVQRAKEALQRTLQIQEEDT”, for which the “soluble fraction (log2)” value was -0.219.

Consider “HMESDRVAHVVAPGETLFSISGKYGIGMGELVAANPVLESRPPRTGDTLLIRLPENPLPAETDAETLS”, for which the “soluble fraction (log2)” value was -0.858.

Take “HMESIAEIDRMNAKIFMDEFQDSLSIMQKTTNPETFFSRYDLAMERLDNMVELQQKGIKFTSDLSSLKAQ”: the “soluble fraction (log2)” value was -0.564.

In the case of “HMESIEGMYKISLLRKQGNAYVIFEDENKEAVEHIFPEKPTALELGTKVIEMFEYKERYDGLI”, the “soluble fraction (log2)” value is -0.781.

Consider “HMESILDDFPGLGEKRKKALLEHFGSISKIKAATVGQLREVDGIGFETAAALREFLDANFPA”, for which the “soluble fraction (log2)” value came out at 0.0668.

Turning to “HMESIPDELLEAFKQDPAFKQAFYALTAGRQRGYIIHFSQPKQSQTRIGRIEKYKEQIFNGIGLN”, the “soluble fraction (log2)” value is -0.125.

On to “HMESKPLTPSEIKKLRMDANMTQAGLAEVLGMTVKAVEAWESGRNIPSGAADKILRVMQKHPSVIGMMQS”, for which the “soluble fraction (log2)” value worked out at 0.247.

On to “HMESLNDRIKLVFKDSGLTQMDISKRLNIAQSSVSGIISGKANPSKRTLADIADRFDVNLEWLRDGTGPMK”, for which the “soluble fraction (log2)” value came to 0.199.

As for “HMESLSHRQKSIVDWVQKNGYASIERMAEQFEVSAQTIRRDVIELSERRILQRHHGGASLPAG”, the “soluble fraction (log2)” value is -0.17.

On to “HMESNDSNIEDDFYEGLKSMRKGDLKMSVVFFTRVIEKKPTFAEAWNRRATVYYMLGKFDKSMFDINETLK”, for which the “soluble fraction (log2)” value is -0.17.

As to “HMESPELIHILKEAEWQIWQQIQGLPEKQRIAMTLFAMDDLSYQEIADVMKVSVSAIESLLFRARTQLKKY”, the “soluble fraction (log2)” value was -0.71.

Regarding “HMESPLEQLTNRELQTLQMLGKGLSTKQIAAQLNLSVKTVETYRENLKRKLNLDSGSELIRYAIHRSNE”, the “soluble fraction (log2)” value is -0.0124.

For the sequence “HMESPLNPTDVRRAAMDLLARREHGVEELRLKLKRRFGREEDFETIATEQLQRLVDEDLLSDTRF”, the “soluble fraction (log2)” value is -0.948.

As for “HMESRETGLPVVIISDGRILQDNLKRRGLDLSWLDKQLAEHGYPDFRDVFLLTVDEAGGVYFVPRE”, the “soluble fraction (log2)” value is -0.145.

In the case of “HMESSNLESQLKKGIVPNLNGLSAKDALFLLENSGFNVKLYGMGSVKKQSLEAGKKYNKGDKITLIL”, the “soluble fraction (log2)” value was found to be 0.219.

On to “HMESSYKGFILDIETRQFSPTLIQRRGIAINPSGIVETTTEFSFATQEKVLIEDLKLIIDELDLRADY”, for which the “soluble fraction (log2)” value was -2.31.

With “HMESTLNYSQFLSLVNEDRVAEVVIQGKELYVTDVNRSRFKVYAPPDPELIGLLRQKRVIISAKP”, the “soluble fraction (log2)” value was 0.203.

Consider “HMESVDRIYERVRRYADDVGTAKIPMKELDDDGPLGTAVSRIRERRKRGELTEEWEARFETLPGWTWAA”, for which the “soluble fraction (log2)” value was -0.265.

As for “HMESWEDSNIANEFKSTIKIAEKRLAEGGDHPELLEKLEALKQAIINENQTEASKLDDQVNDILFDMDD”, the “soluble fraction (log2)” value is -0.558.

“HMETEAGIKAYLSSSMIKGIGPVTAQRIVERFGKRTLYVLDQMPEKLLDISGISEAKLEEILNGYRKS”: the “soluble fraction (log2)” value is -0.532.

On to “HMETFGEKDLDELIGRNVELITHDGKVREGLVDSVDRYNVSLVRYLDAGEVAMMVRRREVKAVRLK”, for which the “soluble fraction (log2)” value is -1.12.

Consider “HMETFGLSQRELQILSQLHKGQPLKEFAASLFITESTLKTHLSAIYRKMSVKNRVQAIEKAKQSGL”, for which the “soluble fraction (log2)” value was -0.273.

Take “HMETGEDSLRRYFNSLPGSASKREILEDNPTVSQRTTERILQKLQAEGFIEKVGAARATRYRKVKQ”: the “soluble fraction (log2)” value was 0.27.

As for “HMETGELQQILEDVFSKNIGIVQDKREAAFSILMGMIMAKSRGRADGALVSTLLKKKLTEFLATSDQVR”, the “soluble fraction (log2)” value is -0.196.

For “HMETGNEDYRVGKELAYDGNYKAATIYLMKSIKDDPNNPDAFNMLGFSHRKLGNNDEAYIYYNKALEL”, the “soluble fraction (log2)” value is -0.722.

For “HMETKKEIIEAINELEEKYRNAIYLTSIEKLSYEETSKILGQSLSNTKNLIHRGKQQLRKILIKK”, the “soluble fraction (log2)” value was -0.37.

On to “HMETLEDHRKKTRQQLFDALSHLLQTSTFESLTMAKIAEEAGVGRTAVYNHFQDKEALLLAFITYETGQ”, for which the “soluble fraction (log2)” value is -0.815.

Consider “HMETLETYTSRLRQLEDITNNFKGVDKSFAIQAGREIRVMVVPEQVSDADMILMARDISKAIEAELEYPGQ”, for which the “soluble fraction (log2)” value is -0.315.

Regarding “HMETLGADLRALRKSRGLTLLDMAESLGRSVGWLSQVERDLSDPSISDLREIAELLGVPISMLFRH”, the “soluble fraction (log2)” value is -1.33.

As for “HMETLKEMDSKGAINASEVNVREGAGTSSSKMYSLSKGASVDVTGIKGDWYRVHTSKGTGYVLAKYVTLVS”, the “soluble fraction (log2)” value was not below 0.43.

Turning to “HMETLYGQIVNDIMEKIESNAWPVGYVIPTESDFQKQYGVSRATVRNAILKLAHLGYLVRKKGSGTYVTRP”, the “soluble fraction (log2)” value was -0.287.

Consider “HMETPEIPGLTPRQVEIMLLVGKGYSNKEIARFLTISPETVKTHLKEVFLRFGLRNRVEAIDFTRQNGL”, for which the “soluble fraction (log2)” value is -0.358.

For the sequence “HMETPLSAADFKIVFGEEYEIGTDANGLPKMGSRINRQLQNRFLTWASVNKRKATMSAYQDWVASDPAAQ”, the “soluble fraction (log2)” value was -0.693.

Take “HMETQVKVPNVVGMTQSKAIAKLKESKLDYEVQEQKHDGDKGKVVDQSEAEGTYVDRGTKVIIYVSTGE”: the “soluble fraction (log2)” value is not below 0.43.

As to “HMETSIQFIRLEIGHNHPWVNQTLKEIPTIPGTLIAAVLRGDEDQAIIPKGDTLLKEGDSVIIGAKEYQD”, the “soluble fraction (log2)” value is -1.61.

Consider “HMETSLVIQIDGAVNSPGIYQVTPGTRIFEALELAGGVREDAQTEALNLALPVYDGQRISIPSSFA”, for which the “soluble fraction (log2)” value was -1.58.

On to “HMETTVSYSGVVTASVLRIRKGPSVSSSVAGTLKKGTGVSIIFEDNGWGKLADGSGWVSLTYIKKNSTP”, for which the “soluble fraction (log2)” value was -0.101.

In the case of “HMETWDQAYETIKQNILNLTYPPGMPLTEAKLAEELGMSRSPVRTALRMLQTDGLIVTDYYKSMTVKEI”, the “soluble fraction (log2)” value was -2.07.

For “HMETWKLYKRAYKKYYARYMKGNMSEADFKAWATQAAADRDAAIEQITPEIDAALKAQIIEQLREKLNR”, the “soluble fraction (log2)” value is -0.134.

For “HMEVAAAENYRSKLSSFAKDTISVWQTELLLGTISDDDKASLTEWMAYIKALQVVDTSDPESITWPTEPT”, the “soluble fraction (log2)” value was -1.12.

In the case of “HMEVAASEQRDNLWALARRVLSGEQYDVLYLRYVEDFSVAQIADVVGKTQTHVKVLLFRGRNNLGSRLRS”, the “soluble fraction (log2)” value is -0.0684.

For the sequence “HMEVENAQLLARLTPQEHRVFERVVAGLSNREIGSEMDISIKTVEVHRARVMRKLEANSVAELVRFHIHN”, the “soluble fraction (log2)” value is -0.811.

As for “HMEVGDTYLGKVTRVSSFGAFIEVLPGKEGLMRQNDAGEGGMPEVGDEVMVRVMEVDHLGRINLSGKLDD”, the “soluble fraction (log2)” value was -1.32.

The values are drawn from the domain aggregation screens of Martell et al. (2025).
